From EP4682169A1 (Gracell Biotechnologies (Shanghai) Co., Ltd., dated 2026)
“And” between values parts separate entries of the source, which are not always exact repeats. Equal values may be shown once.

Tests used:
[1] = target: T1, Claudin18.2 recombinant protein (His tag) (UniProt P56856-2 1-261, limits assumed); test: ELISA, coated antigen; upper end, tied by Table 3 to 1-hIgG1Fc on Claudin 18.2-his (196 nM)
T1 construct: also called Claudin18.2-his antigen; not shown: His tag

[2] = target: T1, Claudin18.2 recombinant protein (His …); test: ELISA, coated antigen 200 ng/well; antibody 0.37 ug/mL
Claudin 18.2 VLP [3] = target: T2, Claudin 18.2 VLP (UniProt P56856 1-261); test: as above
T2 construct: Antigen coated on ELISA plates, 200 ng/well; source and construct not described; also called Claudin18.2-VLP protein; Claudin18.2 VLP antigen

[4] = target: T1, Claudin18.2 recombinant protein (His …); test: ELISA, coated antigen 200 ng/well; antibody 0.123 ug/mL
Claudin 18.2 VLP [5] = target: T2, Claudin 18.2 VLP; test: as above
[6] = target: T1, Claudin18.2 recombinant protein (His …); test: ELISA, coated antigen 200 ng/well; antibody 1.111 ug/mL
Claudin 18.2 VLP [7] = target: T2, Claudin 18.2 VLP; test: as above
[8] = target: T1, Claudin18.2 recombinant protein (His …); test: ELISA, coated antigen 200 ng/well; antibody 3.333 ug/mL
Claudin 18.2 VLP [9] = target: T2, Claudin 18.2 VLP; test: as above
[10] = target: T1, Claudin18.2 recombinant protein (His …); test: ELISA, coated antigen 200 ng/well; antibody 100 ug/mL (so in the source)
Claudin 18.2 VLP [11] = target: T2, Claudin 18.2 VLP; test: as above
[12] = target: T1, Claudin18.2 recombinant protein (His …); test: ELISA, coated antigen 200 ng/well; antibody 0.014 ug/mL
Claudin 18.2 VLP [13] = target: T2, Claudin 18.2 VLP; test: as above
[14] = target: T1, Claudin18.2 recombinant protein (His …); test: ELISA, coated antigen 200 ng/well
Claudin 18.2 VLP [15] = target: T2, Claudin 18.2 VLP; test: ELISA, coated antigen 200 ng/well
[16] = target: T1, Claudin18.2 recombinant protein (His …); test: ELISA, coated antigen 200 ng/well; antibody 0.041 ug/mL
Claudin 18.2 VLP [17] = target: T2, Claudin 18.2 VLP; test: as above
[18] = target: T1, Claudin18.2 recombinant protein (His …); test: ELISA, coated antigen 200 ng/well; antibody 0 ug/mL (blank well, background)
Claudin 18.2 VLP [19] = target: T2, Claudin 18.2 VLP; test: as above

B1: 1-hIgG1Fc (Fc fusion)
chain: EVQLVGSGGGLVQPGGSLRLSCAASGSILNLMTTGWYRQAPGKQRDLVATITFGGTTNYADSVKGRFTISRDKSKNTAYLQMDNLKPEDTAVYFCYADVIVGFQDRRVAWDAGTQVTVSS
notes: VHH-hIgG1Fc recombinant antibody; also called 1-hlgG1Fc; VHH-hIgG1Fc recombinant antibody of clone 1; not shown: human IgG1 Fc (hIgG1Fc)
EC50 [1]: 200 nM | absorbance at 450 nm [2]: 0.216 | absorbance at 450 nm (Claudin 18.2 VLP [3]): 0.585 | absorbance at 450 nm [4]: 0.1 | absorbance at 450 nm (Claudin 18.2 VLP [5]): 0.293 | absorbance at 450 nm [6]: 0.473 | absorbance at 450 nm (Claudin 18.2 VLP [7]): 1.35 | absorbance at 450 nm [8]: 1.08 | absorbance at 450 nm (Claudin 18.2 VLP [9]): 2.13 | absorbance at 450 nm [10]: 2.36 | absorbance at 450 nm (Claudin 18.2 VLP [11]): 2.66 | absorbance at 450 nm [12]: 0.066 | absorbance at 450 nm (Claudin 18.2 VLP [13]): 0.282 | EC50 [14]: 15.7 µg/mL and 196 nM | EC50 (Claudin 18.2 VLP [15]): 1.46 µg/mL and 18.3 nM | absorbance at 450 nm [16]: 0.07 | absorbance at 450 nm (Claudin 18.2 VLP [17]): 0.271 | absorbance at 450 nm [18]: 0.06 | absorbance at 450 nm (Claudin 18.2 VLP [19]): 0.275
